According to US20100260668A1 (published 2010):

T1: PlGF (UniProt P49763-2 21-149, limits assumed)
T1 construct: bought antigen coated on the ELISA plate; also called Placental GF
T1 sequence (looked up): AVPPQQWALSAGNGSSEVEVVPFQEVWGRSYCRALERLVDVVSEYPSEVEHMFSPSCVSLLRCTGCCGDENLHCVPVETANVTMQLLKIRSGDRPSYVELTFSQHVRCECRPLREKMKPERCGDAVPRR

B1: DVD573 (bispecific antibody, human IgG1, kappa)
heavy: not shown
light: DIVLTQSPDSLAVSLGERVTMNCKSSQSLLNSGMRKSFLAWYQQKPGQSPKLLIYWASTRESGVPDRFTGSGSGTDFTLTISSVQAEDVAVYYCKQSYHLFTFGSGTKLEIKRTVAAPDIQMTQSPSSLSASVGDRVTITCRASQDVSTAVAWYQQKPGKAPKLLIYSASFLYSGVPSRFSGSGSGTDFTLTISSLQPEDFATYYCQQSYTTPPTFGQGTKVEIKRTVAAPSVFIFPPSDEQLKSGTASVVCLLNNFYPREAKVQWKVDNALQSGNSQESVTEQDSKDSTYSLSSTLTLSKADYEKHKVYACEVTHQGLSSPVTKSFNRGEC
notes: HC linker short, LC linker short; also called DVD-Ig DVD573
B2: DVD669 (bispecific antibody, human IgG1, kappa)
heavy: not shown
light: DIQMTQSPSSLSASVGDRVTITCKASENVVSYVSWYQQKPGKAPKLLIYGASNRNTGVPSRFSGSGSGTDFTLTISSLQPEDFATYYCGQSYNYPYTFGQGTKLEIKRTVAAPSVFIFPPDIQMTQSPSSLSASVGDRVTITCRASQVIRRSLAWYQQKPGKAPKLLIYAASNLASGVPSRFSGSGSGTDFTLTISSLQPEDFATYYCQQSNTSPLTFGQGTKVEIKRTVAAPSVFIFPPSDEQLKSGTASVVCLLNNFYPREAKVQWKVDNALQSGNSQESVTEQDSKDSTYSLSSTLTLSKADYEKHKVYACEVTHQGLSSPVTKSFNRGEC
notes: DVD-Ig; N-term VD AB079 (HGF), C-term VD AB071 (VEGF); HC linker long, LC linker long; vectors V1/V2
B3: DVD681 (bispecific antibody, human IgG1, kappa)
heavy: not shown
light: DIQMTQSPSSLSASVGDRVTITCKASENVVSYVSWYQQKPGKAPKLLIYGASNRNTGVPSRFSGSGSGTDFTLTISSLQPEDFATYYCGQSYNYPYTFGQGTKLEIKRTVAAPSVFIFPPDIQMTQSPSSLSASVGDRVTITCRASQVIRRSLAWYQQKPGKAPKLLIYAASNLASGVPSRFSGSGSGTDFTLTISSLQPEDFATYYCQQSNTSPLTFGQGTKVEIKRTVAAPSVFIFPPSDEQLKSGTASVVCLLNNFYPREAKVQWKVDNALQSGNSQESVTEQDSKDSTYSLSSTLTLSKADYEKHKVYACEVTHQGLSSPVTKSFNRGEC
notes: DVD-Ig; N-term VD AB079 (HGF), C-term VD AB071 (VEGF); HC linker short, LC linker long; vectors V1/V2
B4: DVD709 (bispecific antibody, human IgG1, kappa)
heavy: not shown
light: DIQMTQSPSSVSASVGDRVTITCRASQGISSWLAWYQQKPGKAPNLLIYEASSLQSGVPSRFGGSGSGTDFTLTISSLQPEDFATYYCQQANGFPWTFGQGTKVEIKRTVAAPDIQMTQSPSSLSASVGDRVTITCRASQDVSTAVAWYQQKPGKAPKLLIYSASFLYSGVPSRFSGSGSGTDFTLTISSLQPEDFATYYCQQSYTTPPTFGQGTKVEIKRTVAAPSVFIFPPSDEQLKSGTASVVCLLNNFYPREAKVQWKVDNALQSGNSQESVTEQDSKDSTYSLSSTLTLSKADYEKHKVYACEVTHQGLSSPVTKSFNRGEC
notes: DVD-Ig; HC linker short, LC linker short; vectors V1/V2
B5: DVD553 (bispecific antibody, human IgG1, kappa)
heavy: not shown
light: AIQMTQSSSSFSVSLGDRVTITCKASEDIYNRFAWYQQKPGNAPRLLISGAASLEAGVPSRFSGSGSGQDYTLSITSLQTEDVATYYCQQYWSTPWTFGGGTKLEIKRTVAAPSVFIFPPDIQMTQSPSSLSASVGDRVTITCRASQVIRRSLAWYQQKPGKAPKLLIYAASNLASGVPSRFSGSGSGTDFTLTISSLQPEDFATYYCQQSNTSPLTFGQGTKVEIKRTVAAPSVFIFPPSDEQLKSGTASVVCLLNNFYPREAKVQWKVDNALQSGNSQESVTEQDSKDSTYSLSSTLTLSKADYEKHKVYACEVTHQGLSSPVTKSFNRGEC
notes: outer AB074 (PlGF), inner AB071 (VEGF); HC linker long, LC linker long; also called DVD-Ig DVD553
B6: DVD569 (bispecific antibody, human IgG1, kappa)
heavy: not shown
light: AIQMTQSSSSFSVSLGDRVTITCKASEDIYNRFAWYQQKPGNAPRLLISGAASLEAGVPSRFSGSGSGQDYTLSITSLQTEDVATYYCQQYWSTPWTFGGGTKLEIKRTVAAPSVFIFPPDIQMTQSPSSLSASVGDRVTITCRASQVIRRSLAWYQQKPGKAPKLLIYAASNLASGVPSRFSGSGSGTDFTLTISSLQPEDFATYYCQQSNTSPLTFGQGTKVEIKRTVAAPSVFIFPPSDEQLKSGTASVVCLLNNFYPREAKVQWKVDNALQSGNSQESVTEQDSKDSTYSLSSTLTLSKADYEKHKVYACEVTHQGLSSPVTKSFNRGEC
notes: outer AB074 (PlGF), inner AB071 (VEGF); HC linker short, LC linker long; also called DVD-Ig DVD569
B7: DVD567 (bispecific antibody, human IgG1, kappa)
heavy: not shown
light: AIQMTQSSSSFSVSLGDRVTITCKASEDIYNRFAWYQQKPGNAPRLLISGAASLEAGVPSRFSGSGSGQDYTLSITSLQTEDVATYYCQQYWSTPWTFGGGTKLEIKRTVAAPSVFIFPPDIQMTQSPSSLSASVGDRVTITCRASQDVSTAVAWYQQKPGKAPKLLIYSASFLYSGVPSRFSGSGSGTDFTLTISSLQPEDFATYYCQQSYTTPPTFGQGTKVEIKRTVAAPSVFIFPPSDEQLKSGTASVVCLLNNFYPREAKVQWKVDNALQSGNSQESVTEQDSKDSTYSLSSTLTLSKADYEKHKVYACEVTHQGLSSPVTKSFNRGEC
notes: HC linker short, LC linker long; also called DVD-Ig DVD567
B8: DVD673 (bispecific antibody, human IgG1, kappa)
heavy: not shown
light: DIQMTQSPSSLSASVGDRVTITCKASENVVSYVSWYQQKPGKAPKLLIYGASNRNTGVPSRFSGSGSGTDFTLTISSLQPEDFATYYCGQSYNYPYTFGQGTKLEIKRTVAAPDIQMTQSPSSLSASVGDRVTITCRASQDVSTAVAWYQQKPGKAPKLLIYSASFLYSGVPSRFSGSGSGTDFTLTISSLQPEDFATYYCQQSYTTPPTFGQGTKVEIKRTVAAPSVFIFPPSDEQLKSGTASVVCLLNNFYPREAKVQWKVDNALQSGNSQESVTEQDSKDSTYSLSSTLTLSKADYEKHKVYACEVTHQGLSSPVTKSFNRGEC
notes: DVD-Ig; HC linker long, LC linker short; vectors V1/V2
B9: DVD711 (bispecific antibody, human IgG1, kappa)
heavy: not shown
light: DIQMTQSPSSVSASVGDRVTITCRASQGISSWLAWYQQKPGKAPNLLIYEASSLQSGVPSRFGGSGSGTDFTLTISSLQPEDFATYYCQQANGFPWTFGQGTKVEIKRTVAAPDIQMTQSPSSLSASVGDRVTITCRASQVIRRSLAWYQQKPGKAPKLLIYAASNLASGVPSRFSGSGSGTDFTLTISSLQPEDFATYYCQQSNTSPLTFGQGTKVEIKRTVAAPSVFIFPPSDEQLKSGTASVVCLLNNFYPREAKVQWKVDNALQSGNSQESVTEQDSKDSTYSLSSTLTLSKADYEKHKVYACEVTHQGLSSPVTKSFNRGEC
notes: DVD-Ig; N-term VD AB012 (HGF), C-term VD AB071 (VEGF); HC linker short, LC linker short; vectors V1/V2
B10: DVD550 (bispecific antibody, human IgG1, kappa)
heavy: not shown
light: DIQMTQSPSSLSASVGDRVTITCSASQDISNYLNWYQQKPGKAPKVLIYFTSSLHSGVPSRFSGSGSGTDFTLTISSLQPEDFATYYCQQYSTVPWTFGQGTKVEIKRTVAAPSVFIFPPAIQMTQSSSSFSVSLGDRVTITCKASEDIYNRFAWYQQKPGNAPRLLISGAASLEAGVPSRFSGSGSGQDYTLSITSLQTEDVATYYCQQYWSTPWTFGGGTKLEIKRTVAAPSVFIFPPSDEQLKSGTASVVCLLNNFYPREAKVQWKVDNALQSGNSQESVTEQDSKDSTYSLSSTLTLSKADYEKHKVYACEVTHQGLSSPVTKSFNRGEC
notes: HC linker long, LC linker long; also called DVD-Ig DVD550
B11: DVD545 (bispecific antibody, human IgG1, kappa)
heavy: not shown
light: AIQMTQSSSSFSVSLGDRVTITCKASEDIYNRFAWYQQKPGNAPRLLISGAASLEAGVPSRFSGSGSGQDYTLSITSLQTEDVATYYCQQYWSTPWTFGGGTKLEIKRTVAAPDIQMTQSPSSLSASVGDRVTITCRASQVIRRSLAWYQQKPGKAPKLLIYAASNLASGVPSRFSGSGSGTDFTLTISSLQPEDFATYYCQQSNTSPLTFGQGTKVEIKRTVAAPSVFIFPPSDEQLKSGTASVVCLLNNFYPREAKVQWKVDNALQSGNSQESVTEQDSKDSTYSLSSTLTLSKADYEKHKVYACEVTHQGLSSPVTKSFNRGEC
notes: outer AB074 (PlGF), inner AB071 (VEGF); HC linker short, LC linker short; also called DVD-Ig DVD545
B12: DVD667 (bispecific antibody, human IgG1, kappa)
heavy: not shown
light: DIQMTQSPSSLSASVGDRVTITCKASENVVSYVSWYQQKPGKAPKLLIYGASNRNTGVPSRFSGSGSGTDFTLTISSLQPEDFATYYCGQSYNYPYTFGQGTKLEIKRTVAAPSVFIFPPDIQMTQSPSSLSASVGDRVTITCRASQDVSTAVAWYQQKPGKAPKLLIYSASFLYSGVPSRFSGSGSGTDFTLTISSLQPEDFATYYCQQSYTTPPTFGQGTKVEIKRTVAAPSVFIFPPSDEQLKSGTASVVCLLNNFYPREAKVQWKVDNALQSGNSQESVTEQDSKDSTYSLSSTLTLSKADYEKHKVYACEVTHQGLSSPVTKSFNRGEC
notes: DVD-Ig; HC linker long, LC linker long; vectors V1/V2
B13: DVD679 (bispecific antibody, human IgG1, kappa)
heavy: not shown
light: DIQMTQSPSSLSASVGDRVTITCKASENVVSYVSWYQQKPGKAPKLLIYGASNRNTGVPSRFSGSGSGTDFTLTISSLQPEDFATYYCGQSYNYPYTFGQGTKLEIKRTVAAPSVFIFPPDIQMTQSPSSLSASVGDRVTITCRASQDVSTAVAWYQQKPGKAPKLLIYSASFLYSGVPSRFSGSGSGTDFTLTISSLQPEDFATYYCQQSYTTPPTFGQGTKVEIKRTVAAPSVFIFPPSDEQLKSGTASVVCLLNNFYPREAKVQWKVDNALQSGNSQESVTEQDSKDSTYSLSSTLTLSKADYEKHKVYACEVTHQGLSSPVTKSFNRGEC
notes: DVD-Ig; HC linker short, LC linker long; vectors V1/V2
B14: DVD575 (bispecific antibody, human IgG1, kappa)
heavy: not shown
light: DIVLTQSPDSLAVSLGERVTMNCKSSQSLLNSGMRKSFLAWYQQKPGQSPKLLIYWASTRESGVPDRFTGSGSGTDFTLTISSVQAEDVAVYYCKQSYHLFTFGSGTKLEIKRTVAAPDIQMTQSPSSLSASVGDRVTITCRASQVIRRSLAWYQQKPGKAPKLLIYAASNLASGVPSRFSGSGSGTDFTLTISSLQPEDFATYYCQQSNTSPLTFGQGTKVEIKRTVAAPSVFIFPPSDEQLKSGTASVVCLLNNFYPREAKVQWKVDNALQSGNSQESVTEQDSKDSTYSLSSTLTLSKADYEKHKVYACEVTHQGLSSPVTKSFNRGEC
notes: outer AB047 (PlGF), inner AB071 (VEGF); HC linker short, LC linker short; also called DVD-Ig DVD575
B15: DVD675 (bispecific antibody, human IgG1, kappa)
heavy: not shown
light: DIQMTQSPSSLSASVGDRVTITCKASENVVSYVSWYQQKPGKAPKLLIYGASNRNTGVPSRFSGSGSGTDFTLTISSLQPEDFATYYCGQSYNYPYTFGQGTKLEIKRTVAAPDIQMTQSPSSLSASVGDRVTITCRASQVIRRSLAWYQQKPGKAPKLLIYAASNLASGVPSRFSGSGSGTDFTLTISSLQPEDFATYYCQQSNTSPLTFGQGTKVEIKRTVAAPSVFIFPPSDEQLKSGTASVVCLLNNFYPREAKVQWKVDNALQSGNSQESVTEQDSKDSTYSLSSTLTLSKADYEKHKVYACEVTHQGLSSPVTKSFNRGEC
notes: DVD-Ig; N-term VD AB079 (HGF), C-term VD AB071 (VEGF); HC linker long, LC linker short; vectors V1/V2

Legend:
PlGF [1] = molecular target: T1, PlGF; assay: direct bind ELISA, N-terminal VD
HGF-His tag = molecular target: T2, HGF-His tag (UniProt P14210 32-728); assay: direct bind ELISA (N-term VD);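 further: ELISA screen of antibodies for binding to plate-immobilized target antigen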
T2 construct: Bought antigen coated on the ELISA plate; not shown: His tag

VEGF 1-165 aa = molecular target: T3, VEGF 1-165 aa (UniProt P15692 27-191); assay: direct bind ELISA (C-term VD)
T3 construct: Bought antigen coated on the ELISA plate
Procedure: (§1) Enzyme Linked Immunosorbent Assays to screen for antibodies that bind a desired target antigen were performed as follows. […] Plates were washed four times with PBS containing 0.02% Tween 20. Plates were blocked by the addition of 300 μL/well blocking solution (non-fat dry milk powder, various retail suppliers, diluted to 2% in PBS) for ½ hour at room temperature. Plates were washed four times after blocking with PBS containing 0.02% Tween 20.
Alternatively, one hundred microliters per well of 10 μg/ml of Histidine (His) tagged desired target antigen (R&D Systems, Minneapolis, Minn.) was added to ELISA plates coated with monoclonal mouse anti-polyHistidine antibody as described above and incubated for 1 hour at room temperature. Wells were washed four times with PBS containing 0.02% Tween 20.
(§2) Plates were washed 4 times with PBS containing 0.02% Tween 20.

PlGF [2] = molecular target: T1, PlGF; assay: direct bind ELISA, C-terminal VD
Procedure: as §1, §2

T2 sequence (P14210 32-728 limits assumed): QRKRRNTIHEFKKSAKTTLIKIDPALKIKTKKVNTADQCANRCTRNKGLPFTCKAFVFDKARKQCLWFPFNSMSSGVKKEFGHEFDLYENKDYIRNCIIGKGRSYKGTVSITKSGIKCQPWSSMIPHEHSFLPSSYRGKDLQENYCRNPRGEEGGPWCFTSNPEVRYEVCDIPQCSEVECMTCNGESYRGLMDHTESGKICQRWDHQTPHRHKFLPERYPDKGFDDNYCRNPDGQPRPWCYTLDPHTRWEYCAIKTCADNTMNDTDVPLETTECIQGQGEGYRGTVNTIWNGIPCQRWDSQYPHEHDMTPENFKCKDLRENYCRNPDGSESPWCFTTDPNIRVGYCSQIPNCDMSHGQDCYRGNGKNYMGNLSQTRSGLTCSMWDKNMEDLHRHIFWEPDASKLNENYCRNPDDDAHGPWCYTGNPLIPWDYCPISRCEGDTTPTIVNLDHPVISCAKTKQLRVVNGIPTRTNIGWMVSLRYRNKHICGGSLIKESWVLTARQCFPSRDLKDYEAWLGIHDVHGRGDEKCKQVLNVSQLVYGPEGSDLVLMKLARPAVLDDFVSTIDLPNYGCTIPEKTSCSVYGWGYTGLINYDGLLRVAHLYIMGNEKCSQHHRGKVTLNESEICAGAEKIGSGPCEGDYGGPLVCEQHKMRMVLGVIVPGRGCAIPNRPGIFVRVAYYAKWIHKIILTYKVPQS
T3 sequence (P15692 other isoform, or with tags, fused parts or gaps limits assumed): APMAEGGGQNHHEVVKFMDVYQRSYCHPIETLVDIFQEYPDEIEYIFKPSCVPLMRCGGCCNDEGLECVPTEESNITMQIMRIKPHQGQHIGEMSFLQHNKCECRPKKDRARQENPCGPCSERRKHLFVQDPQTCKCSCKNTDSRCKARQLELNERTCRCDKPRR

Binder	EC50 (PlGF [1]) [nM]	EC50 (HGF-His tag) [nM]	EC50 (VEGF 1-165 aa) [nM]	EC50 (PlGF [2]) [nM]
B1	0.14			
B2		0.29	1660	
B3		0.27	2160	
B4		0.14	1370	
B5	66300			
B6	88.5			
B7	340			
B8		0.4	65.3	
B9		1.32	166	
B10				146
B11	98.8			
B12		0.33	51.3	
B13		0.32	92.4	
B14	0.14			
B15		0.48	5770	
